Values quoted from earlier work as cited in EP1666054A1, “Method for administering insulinotropic peptides” (priority 1998, dated 2006).

Conditions: pulmonary delivery; calculated, background statement

Substance: parathyroid hormone (1-34)
- Absorption values (delivered through the lungs): fifteen
